In patent US20240349732A1 (IMPETUS AGRICULTURE, published 2024):

T1: 57NAAT1like (second extracellular loop of Spodoptera frugiperda sodium-dependent nutrient amino acid … (Spodoptera frugiperda))
T1 construct: 57 aa antigen; also called NAAT antigen
T1 chain: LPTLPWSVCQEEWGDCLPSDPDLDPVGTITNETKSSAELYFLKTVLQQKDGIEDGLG

T2: tagless FAW Cadherin antigen (Spodoptera frugiperda)
T2 construct: the batch used for panning is called tagless; also called Sp.f Cadherin
T2 chain: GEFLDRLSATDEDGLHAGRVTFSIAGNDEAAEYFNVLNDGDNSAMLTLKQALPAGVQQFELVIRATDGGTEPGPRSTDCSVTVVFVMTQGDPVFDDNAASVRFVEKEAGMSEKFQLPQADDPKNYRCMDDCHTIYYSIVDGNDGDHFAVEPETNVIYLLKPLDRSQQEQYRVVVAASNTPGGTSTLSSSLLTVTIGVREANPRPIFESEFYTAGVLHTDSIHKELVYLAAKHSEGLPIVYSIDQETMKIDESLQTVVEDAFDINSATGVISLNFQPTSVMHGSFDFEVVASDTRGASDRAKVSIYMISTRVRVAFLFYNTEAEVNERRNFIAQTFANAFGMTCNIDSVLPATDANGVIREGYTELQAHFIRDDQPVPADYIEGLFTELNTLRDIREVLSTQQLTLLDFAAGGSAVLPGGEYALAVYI

B1: NAAT monospecific nanobody #10 (VHH)
VHH: QVQLQESGGGLVQAGGSLTLSCAFSGRTFTHYAMAWFRQAPGKERKFVAGVTRSGPNTYYDDSVQGRFTISRDNAKNTVYLHMNSLKPEDTAVYYCAANSGVVSGYDYWGQGTQVTVSS
notes: Llama VHH; also called NAAT10
B2: NAAT monospecific nanobody #1 (VHH)
VHH: QVQLQESGGGLVQAGGSLRLSCAASGRTFSRYAMGWFRQALGKEREFVAGINWSGSMTYYADSVKGRFTISRDNAKNMLYLQMNSLKSEDTAVYYCAGVTVVGGAPAFDYWGQGTQVTVSS
notes: Llama VHH; also called NAAT1
B3: NAAT monospecific nanobody #2 (VHH)
VHH: QVQLQESGGGVVQTGGSLTLSCKASRRTSGFAMAWFRQAPGMEREFVAGIGRTGDNIHYLDSVKGRFTISRDNTKNTLSLQMNSLRPGDTAVYYCAADVTKSGFIYWGQGTQVTVSS
notes: Llama VHH; also called NAAT2
B4: NAAT monospecific nanobody #5 (VHH)
VHH: QVQLQESGGGLVQPGGSLRLACVLSGGPSSSYGVGWFRQRSGTEREFVAAISGSGRTIHYVDDVKGRFAISRDSAKNAVDLQMNNLKPEDTAVYYCAALALVTTHPTSNVGEWDYWGQGTQVTVSS
notes: Llama VHH; also called NAAT5
B5: NAAT monospecific nanobody #6 (VHH)
VHH: QVQLQESGGGVVQTGGSLTLSCKASRRTSGFAMAWFRQAPGMEREFVAGIGRTGDNIHYLDSVKGRFTISRDNTKNTLSLQMNSLKSEDTAVYYCAKVVVVAGSPSFDAWGQGTQVTVSS
notes: Llama VHH; also called NAAT6
B6: NAAT monospecific nanobody #29 (VHH)
VHH: QVQLQESGGGVVQTGGSLTLSCKASRRTSGFAMAWFRQAPGMEREFVAGIGRTGDNIHYLDSVKGRFTISRDNTKNTLSLQMNNLKPEDTAVYYCLRTMGGTWSEKGQGTQVTVSS
notes: Llama VHH; also called NAAT29
B7: Cadherin monospecific nanobody #2 (VHH)
VHH: QVQLQESGGGLVQAGASLRLSCAASRRTGSSLTMGWFRQAPGKEREFVAAISRSGIRTYYADFVKGRFTISRDNAKNTLYLQMNSLKPEDTAVYYCAANDKTYGSGLDVYTRRQNYYYWGPGTQVTVSS
notes: Llama VHH; also called Cad2
B8: Cadherin monospecific nanobody #43 (VHH)
VHH: QVQLQESGGGLAQAGASLRLSCAASRRTGSSLTMGWFRQAPGKEREFVAAISRSGIRTYYADFVKGRFTISRDNAKNTLYLQMNSLKPEDTAVYYCAANDKTYGSGLDVYTRRQDYYYWGPGTQVTVSS
notes: Llama VHH; also called Cad43
B9: Cadherin monospecific nanobody #48 (VHH)
VHH: QVQLQESGGGLVQAGASLRLSCAASRRTGSSLTMGWFRQAPGREREFVAAISRSGIRTYYADFVKGRFTISRDNAKNTLYLQMNSLKPEDTAVYYCAANDKTYGSGLDVYTRRQDYYYWGPGTQVTVSS
notes: Llama VHH; also called Cad48
B10: Cadherin monospecific nanobody #46 (VHH)
VHH: QVQLQESGGGSVQAGGSLKLSCAASGTESIFIVMGWYRQAPGKERELVAAMSFGGGTNVTDGVRGRFTISRDFDKNTVDLQMNNLKTEDTAVYYCNAVQWGPRDYWGQGTQVTVSS
notes: Llama VHH; also called Cad46
B11: Cadherin monospecific nanobody #50 (VHH)
VHH: QVQLQESGGGLVQAGASLRLSCAASRRTGSSLTMGWFRQAPGKEREFVAAISRSGIRTYYADFVKGRFTISRDNGENTLYLQINSLKPEDTAVYYCAASSNPGYYRTAPNQYNFWGPGTQVTVSS
notes: Llama VHH; also called Cad50

Target: T1, 57NAAT1like (second extracellular loop …)
Experiment: ELISA of periplasmic extracts on passively coated non-biotinylated 57NAAT1like

Binder | binding result
B1 | binds
B2 | binds
B3 | binds
B4 | binds
B5 | binds
B6 | binds

Target: T2, tagless FAW Cadherin antigen
Experiment: screen of colonies after 3 rounds of phage panning on solid-phase coated tagless FAW Cadherin antigen

Binder | binding result
B7 | binds
B8 | binds
B9 | binds
B10 | binds
B11 | binds
